Measured values as given in the nanobody polyreactivity screen of Harvey et al. (2022).

assay: yeast display, Sf9 membrane polyspecificity reagent, FACS + sequencing; frameworks hold sequencing errors
How it was run: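 Nanobodies came from a synthetic yeast display library in Saccharomyces cerevisiae BJ5465, induced with galactose for 36–48 hours and stained for 1 hour at 4 °C with 10% biotinylated, detergent-solubilized Sf9 membrane reagent. Cells were enriched on streptavidin microbeads and then FACS-sorted, with low and high (top ~1%) gates set on anti-HA fluorescence for expression and streptavidin fluorescence for reagent binding. Each polyreactivity label reflects the gate a clone came from. Genes were amplified by colony PCR, sequenced by MiSeq 2 × 250 and filtered by CDR length.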

Question: With “QVQLVESGGGLVQAGGSLRLSCAASGLIYFYYDMGWYRQAPGKERELVAAISQRGGSTYYADSVKGRFTISRDNAKNTVYLQMNSLKPEDTAVYYCNAYSQRYGYYYWGQGTQVTVSS” as the sequence, how does the “polyreactivity (PSR sort gate)” value read?
Answer: The value was “high polyreactivity”.

Question: For “QVQLVESGGGLVQAGGSLRLSCAASGLIYTPYAMGWYRQAPGKERELVAAINYGGSRTYYADSVKGRFTISRDNAKNTVYLQMNSLKPEDTAVYYCNKPGNYVWRRSWDFDYWGQGTQVTVSS”, which “polyreactivity (PSR sort gate)” value is on record?
Answer: Its value is “high polyreactivity”.

Question: With “QVQLVESGGGLVQAGGSLRLSCAASGLMFTRYAMGWYRQAPGKERELVAAISITGGSTYYADSVKGRFTFSRDNAKNTVYLQMNSLKPEDTAVYYCAAQRQVTTGIYGYWGQGTQVTVSS” as the sequence, how does the “polyreactivity (PSR sort gate)” value read?
Answer: Its value is “high polyreactivity”.

Question: For “QVQLVESGGGLVQAGGSLRLSCAASGLNFIRYAMGWYRPAPGKERELVAAISWPGGNTYYADSVKGRFTISRDNAKNTVYLQMISQKPEDTAVYYCAAVGTWQHRSYGYWGQGTQVTVSS”, which “polyreactivity (PSR sort gate)” value is on record?
Answer: The value was “high polyreactivity”.

Question: For “QVQLVESGGGLVQAGGSLRLSCAASGLNFWYYAMGWYRQAPGKERELVAAISWGGGSTYYADSVKGRFTISRDNAKNTVYLLMNSLKPEDTAVYYCAADSSYWYGTECDYWGQGTQVTVSS”, which “polyreactivity (PSR sort gate)” value is on record?
Answer: Its value is “high polyreactivity”.

Question: Which “polyreactivity (PSR sort gate)” value does the source give for “QVQLVESGGGLVQAGGSLRLSCAASGLNFYWYAMGWYRQAPGKERELFAAINWSGGRTHYADSVKGRFTMSRDNANNTVYFQMNCLKPEDTAVYYCAASPYWFTRYYPKTRETMDYWGQGTQVTVST” here?
Answer: Its value is “high polyreactivity”.

Question: With “QVQLVESGGGLVQAGGSLRLSCAASGLPYAMGWYRQAPGKERELVAAISSSGGSTYYADSVKGRFTISRDNAKNNVYLQMNSLKPEDTAVYYCNRDIGGTSVLDDYWGQGTQVTVSS” as the sequence, how does the “polyreactivity (PSR sort gate)” value read?
Answer: The value was “low polyreactivity”.

Question: With “QVQLVESGGGLVQAGGSLRLSCAASGLRFNVYAMGWYRQAPGKERELVAAITSGGSTHYADSVKGRFTISRDNAKNTVYLQMNSLKPEDTAVYYCNKELATARGQSLYRTYSGYGYRGQGTQVTVSS” as the sequence, how does the “polyreactivity (PSR sort gate)” value read?
Answer: Its value is “high polyreactivity”.

Question: For “QVQLVESGGGLVQAGGSLRLSCAASGLSFSGNVMGWYRQAPGKERELVAAIDRSGGSTYYADSVKGRFTISRDNAQKTVYLQMNSLKPEDTAVYYCAVSSYPNHSRSWDDYWGQGTQVTVSS”, which “polyreactivity (PSR sort gate)” value is on record?
Answer: Its value is “low polyreactivity”.

Question: With “QVQLVESGGGLVQAGGSLRLSCAASGLSSLRMLWDGRDRRLGKKGSWLPLITSGGDSTNYADSVKGRFTISRDNAKNTVYLQMNSLKPEDTAVYYCAADLDYPYGYWGQGTQVTVSS” as the sequence, how does the “polyreactivity (PSR sort gate)” value read?
Answer: The value was “low polyreactivity”.

Question: For “QVQLVESGGGLVQAGGSLRLSCAASGLTCSRNAMGWYRQAPGKERELVAAINWSGGSTYYADSVKGRFTISRDNAKNTVYLQMNSLKPEDTAVYYCAAEYAPSPYDWGYEYWGQGTQVTLSS”, which “polyreactivity (PSR sort gate)” value is on record?
Answer: The value was “high polyreactivity”.

Question: Which “polyreactivity (PSR sort gate)” value does the source give for “QVQLVESGGGLVQAGGSLRLSCAASGLTFADYAMGWYRKAPGKERELVAAISRRGGSTYYADSVKGRFTISRDNAKNTVYLQMNSLKPEDTAVYYCNAAYVYGDQARGGYWGQGTQVTVSS” here?
Answer: The value was “high polyreactivity”.

Question: For “QVQLVESGGGLVQAGGSLRLSCAASGLTFAGYAMGWYRQAPGKERELVASITTSGGSTHNADSVKGRFTISRDNEKNTVYVQMNSLKPEDTAVYYCAAECYPGDTELIGAFDYWGQGTQVTVSS”, which “polyreactivity (PSR sort gate)” value is on record?
Answer: The value was “low polyreactivity”.

Question: With “QVQLVESGGGLVQAGGSLRLSCAASGLTFALYAMGWYRQAPGQERELVAAIDWSGGITYYADSVKGRFTISRDHAKNTVYLQMNSLKPEDTAVYYCAARPSTFKYKYGYWGQGTQVTVSS” as the sequence, how does the “polyreactivity (PSR sort gate)” value read?
Answer: Its value is “high polyreactivity”.

Question: With “QVQLVESGGGLVQAGGSLRLSCAASGLTFANYAMGWYRQAPGKERELVAAISTWSGGSTYYADSVKGRFTISRDNAKNTVYLQMNSLKPEDTAVYYCAARRYSRGRLPYDYGGQGTQVTVSS” as the sequence, how does the “polyreactivity (PSR sort gate)” value read?
Answer: Its value is “high polyreactivity”.

Question: For “QVQLVESGGGLVQAGGSLRLSCAASGLTFARTAKGWYRQAPGKERALVAAISSRGGSTYYADSVKGRFTISRDIANNTVYLQMNSLKPEDTAVYYCATSQVLRRDRYDYWGQGTQVTVSS”, which “polyreactivity (PSR sort gate)” value is on record?
Answer: Its value is “high polyreactivity”.

Question: With “QVQLVESGGGLVQAGGSLRLSCAASGLTFASNAMGWYRQAPGKERELVAAISWSDGSTYYADSVKGRFTISRDNAKNTVYLQMNSLKPEDTAVYYCAAEPPGFRTSRVGYWGQGTQVTVSS” as the sequence, how does the “polyreactivity (PSR sort gate)” value read?
Answer: The value was “low polyreactivity”.
